The values that follow are results of earlier work, collected in publication PMC3164694.

One series addresses MMP-2 (Homo sapiens) (UniProt P08253).
Another series deals with TIMP-2 (Homo sapiens) (UniProt P16035).

MMP-2 (Homo sapiens), sequence (P08253 110-660): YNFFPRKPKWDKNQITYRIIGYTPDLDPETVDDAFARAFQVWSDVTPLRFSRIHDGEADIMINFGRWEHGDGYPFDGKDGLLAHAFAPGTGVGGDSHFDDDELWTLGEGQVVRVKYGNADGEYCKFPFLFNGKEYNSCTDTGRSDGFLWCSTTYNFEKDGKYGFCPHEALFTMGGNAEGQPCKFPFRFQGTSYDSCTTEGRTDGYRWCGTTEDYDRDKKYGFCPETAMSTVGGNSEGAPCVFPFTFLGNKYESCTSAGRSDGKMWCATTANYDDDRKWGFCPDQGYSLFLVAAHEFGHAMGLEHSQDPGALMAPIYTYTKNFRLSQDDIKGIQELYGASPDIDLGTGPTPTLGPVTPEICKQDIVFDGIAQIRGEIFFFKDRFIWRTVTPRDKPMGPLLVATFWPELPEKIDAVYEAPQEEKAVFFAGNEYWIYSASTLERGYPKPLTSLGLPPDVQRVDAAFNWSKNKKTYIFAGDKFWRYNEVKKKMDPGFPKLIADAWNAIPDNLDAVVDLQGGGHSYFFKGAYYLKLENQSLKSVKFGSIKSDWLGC

Turning to “MT1-MMP/TIMP-2 complex (from UniProt P50281)”, the Kd (in general, the free concentration of one partner at which half of the binding sites on the other are occupied at equilibrium, for simple one-to-one binding) with MMP-2 (Homo sapiens) is 0.56 nM. Consider MT1-MMP (from UniProt P50281), for which, in the series with TIMP-2 (Homo sapiens), the Kd was 2.54 nM.
